Molecular target: hSgt2 M233D (Homo sapiens) (UniProt O43765)
Experiment: pull-down

Sequence of UniProt O43765 (O43765 213-313 M233D): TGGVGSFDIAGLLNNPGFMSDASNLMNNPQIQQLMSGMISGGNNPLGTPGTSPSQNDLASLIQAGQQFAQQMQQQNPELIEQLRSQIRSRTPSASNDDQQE

percent reduction of binding against wild type: 36%
B1: MBP-Sbh1 full length (natural protein)
chain: MSSPTPPGGQRTLQKRKQGSSQKVAASAPKKNTNSNNSILKIYSDEATGLRVDPLVVLFLAVGFIFSVVALHVISKVAGKLF

Source: doi:10.1101/517573
